The target in this assay is T1, human β-klotho (human, UniProt Q86Z14 52-997, limits assumed).
T1 construct: Antigen of the SET assay; also called beta-klotho
T1 sequence: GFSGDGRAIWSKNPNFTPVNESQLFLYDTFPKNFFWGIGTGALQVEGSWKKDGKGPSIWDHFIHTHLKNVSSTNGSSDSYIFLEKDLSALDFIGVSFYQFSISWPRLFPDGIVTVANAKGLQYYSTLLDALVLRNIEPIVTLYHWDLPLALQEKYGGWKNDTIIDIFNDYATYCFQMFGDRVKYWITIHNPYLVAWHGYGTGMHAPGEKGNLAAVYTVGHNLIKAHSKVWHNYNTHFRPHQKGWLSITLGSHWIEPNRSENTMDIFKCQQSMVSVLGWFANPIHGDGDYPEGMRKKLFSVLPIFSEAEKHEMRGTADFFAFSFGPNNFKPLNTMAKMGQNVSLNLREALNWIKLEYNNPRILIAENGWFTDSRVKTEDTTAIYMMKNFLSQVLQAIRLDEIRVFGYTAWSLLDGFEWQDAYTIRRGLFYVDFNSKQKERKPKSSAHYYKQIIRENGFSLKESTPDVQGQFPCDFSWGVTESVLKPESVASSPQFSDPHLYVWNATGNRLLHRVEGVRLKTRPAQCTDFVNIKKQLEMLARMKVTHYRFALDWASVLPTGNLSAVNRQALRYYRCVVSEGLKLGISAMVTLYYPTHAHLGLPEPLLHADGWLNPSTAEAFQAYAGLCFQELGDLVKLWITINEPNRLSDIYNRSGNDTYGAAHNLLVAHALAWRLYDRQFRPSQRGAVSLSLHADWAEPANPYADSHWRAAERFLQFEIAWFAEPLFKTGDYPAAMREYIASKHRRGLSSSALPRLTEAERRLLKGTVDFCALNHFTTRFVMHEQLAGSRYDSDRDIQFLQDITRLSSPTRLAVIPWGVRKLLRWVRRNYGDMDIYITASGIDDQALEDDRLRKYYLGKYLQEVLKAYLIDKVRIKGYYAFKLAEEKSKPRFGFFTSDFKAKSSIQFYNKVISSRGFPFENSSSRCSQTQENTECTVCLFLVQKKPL
The assay is described as follows: solution equilibrium titration (SET).

As usually defined, the Kd is the concentration at which binding is half-saturated. Higher therefore signals lower affinity.

B1: NOV001 (antibody, human IgG1, kappa, L234A L235A, V domains shown)
VH: QVQLVQSGAEVKKPGSSVKVSCKASGYTFTDYYINWVRQAPGQGLEWMGRIHPGSGNTYYNEKFQGRVTLTADKSTSTAYMELSSLRSEDTAVYYCAILLLRSYGMDDWGQGTTVTVSS
VL: DVVMTQTPLSLSVTPGQPASISCKSSQSIVHSSGNTYLEWYLQKPGQSPQLLIYKVSNRFSGVPDRFSGSGSGTDFTLKISRVEAEDVGVYYCFQGSHIPYTFGQGTKLEIKR
notes: also called IgG1 LALA version of NOV003
Molecule B1 came in with a dissociation constant Kd of about 0.042 nM.

The values are drawn from patent US20200087392A1 (Novartis, published 2020).
